According to the supplement of paper PMC9170038:

Test system: MS2 coat protein
Assay: apparent KD of MS2 coat protein; designed switch direction (-1 OFF switch, 1 ON switch): -1; higher = weaker reporter binding
In short: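 Normalised cluster fluorescence was curve-fitted, and each design's median over clusters is its apparent KD. Before this, SNAP-549-labelled MS2 coat protein was titrated from 0.7 or 1.5 nM, doubling to 3 µM, over RNA switches transcribed on Illumina chips by stalled E. coli RNA polymerase. Titrations had no input, 200 uM small-molecule ligand, or an oligonucleotide input, and steps lasted 0.8–1.5 h (lowest) to 10–20 min (highest).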

[1] = input ligand: microRNA oligo, concentration not stated
[2] = Eterna round: R95, input ligand: FMN 200 uM
[3] = Eterna round: R95, input ligand: microRNA oligo, concentration not stated
[4] = Eterna round: R95, input ligand: none

Sequence | apparent KD of MS2 coat protein (input ligand: FMN 200 uM) [nM] | apparent KD of MS2 coat protein (input ligand: none) [nM] | apparent KD of MS2 coat protein [1] [nM] | apparent KD of MS2 coat protein [2] [nM] | apparent KD of MS2 coat protein [3] [nM] | apparent KD of MS2 coat protein [4] [nM]
CCCAGAUAAGGAUAUUGAAGGUUCGACAUGAGGAUCACCCAUGUUAUGUUGGAAAAGGGACAAGAAGGUAUGAAAA [salish99_ex5_r4_216] (Eterna round: R97, puzzle: Exclusion 5) | 31.2 | 33.1 | – | – | – | –
CCCAGUUAGAGAGGAUAUCGUACAUGAGGAUCACCCAUGUAAUAAAUGAGGAUUUCGGGUGUCUGCGAGAAGGCUCGGAUAGGC [Ostracism 31 - Jieux - Exclusion NG 2] (Eterna round: R96, puzzle: Exclusion NG 2) | 105 | 47 | 32.9 | – | – | –
CCCAGUUAGGAAGGAUAUUGUACAUGAGGAUCACCCAUGUAAUAAAUGAGGAUUUCGGGUGUCUACAAGAAGGUCCGGAUAGGC [Ostracism 13 - Jieux - Exclusion NG 2] (Eterna round: R96, puzzle: Exclusion NG 2) | 110 | 59.4 | 39.2 | – | – | –
CCCAGUUAGUCAGGAUAUCAUACAUGAGGAUCACCCAUGUAAUAAAUGAGGAUUUCGGGUGUCUAUGAGAAGGGACGGAUAGGC [Ostracism 28 - Jieux - Exclusion NG 2] (Eterna round: R96, puzzle: Exclusion NG 2) | 29.6 | 24.5 | 18.8 | – | – | –
CCCAGUUAGUGAGGAUAUCAUACAUGAGGAUCACCCAUGUAAUAAAUGAGGAUUUCGGGUGUCUAUGAGAAGGCACGGAUAGGC [Ostracism 26 - Jieux - Exclusion NG 2] (Eterna round: R96, puzzle: Exclusion NG 2) | 27.2 | 30.4 | 22.2 | – | – | –
CCCAUAUUGGAAGGAUAUUACCACAUGAGGAUCACCCAUGUGGUUUAAGGCUUACAACGACGUGGUAAGAAGGUCCAUUAUAUG [Eternabot solution 45] (Eterna round: R96, puzzle: Exclusion NG 2) | 28.1 | 15.4 | 13.7 | – | – | –
CCCAUGUCAGGAUAUUAAUUGGGCGGGAAAUCCCACCCACUUGAGAAGGGACAUGAGGAUCACCCAUGUAAAAC [Indila] (Eterna round: R97, puzzle: Exclusion 4) | 66.6 | 629 | – | – | – | –
CCCAUGUCAGGAUAUUAGAUACUGCCGCAAAACAAAGGCAUUGAGAAGGGACAUGAGGAUCACCCAUGUAAAAC [Soraxerila] (Eterna round: R97, puzzle: Exclusion 4) | 112 | 326 | – | – | – | –
CCCGAACAUGAGGAUCACCCAUGUCAGGAUAUAUUGCAGUGCAGAGCGCGUGCUAAGGAUAGAAGGGACAUGAA [Eternabot (L2) Solution 62] (Eterna round: R97, puzzle: Exclusion 1) | 31.4 | 29 | – | – | – | –
CCCGCAGGUUUUUUGCUCGACAUGAGGAUCACCCAUGUUGUAUGGGUUGUGUGUGUGUGGUGCAUAUAUAUGGUCCU [-25.6, -47.7 kcal, A 16%] (Eterna round: R97, puzzle: Sensor, turn-off variant 1) | 427 | 655 | – | – | – | –
CCCGGGCGAGGAUAUACAUGAGGAUCACCCAUGUUGGGCUAGUUGGUGGCUCCUCGCGGUAGAAGGCGCACGCG [Edna] (puzzle: Exclusion 3) | – | – | – | 123 | 64.5 | 74.6
CCCGGGUUAGGAUAUGGGCCCGGGCCCGAAAGGGCCCGGGCCCAGAAGGGACAUGAGGAUCACCCAUGUCCGGG [-53.1, -49.1 kcal, 20% A] (Eterna round: R97, puzzle: Exclusion 4) | 22.1 | 19.9 | – | – | – | –
CCCGUCGAUGUAGGAUAUGCCCGGGUCUCCCGGGCAGAAGGACAUGAGGAUCACCCAUGUUCAUGAGCAUCAGCCAUGAAUGGG [Double but mutated MS2] (Eterna round: R96, puzzle: Exclusion NG 1) | 12.8 | 20.2 | 12.7 | – | – | –
CCCGUGUUAGGAUAUACGGCACACCCACAAACGGGUAUAUAGUAGAAGGAACAUGAGGAUCACCCAUGUAAAAC [Qubexeer] (puzzle: Exclusion 4) | – | – | – | – | 18.5 | –
CCCUCACAUGAGGAUCACCCAUGUAAGGAUAUCUUCGAUUUGACGUGGUUGGAUGCGAAGAGAAGGUACAAGGC [jl-ex1-4.72 ViennaUCT mod] (Eterna round: R97, puzzle: Exclusion 1) | 35.9 | 20.6 | – | – | – | –
CCCUCACAUGAGGAUCACCCAUGUCAGGAUAUCUCACAUCAGCCUUAGGCCGAUGUCUAGAGAAGGGACGUAUC [Latees] (puzzle: Exclusion 1) | – | – | – | – | 21.3 | –

Sequence | apparent KD of MS2 coat protein (input ligand: FMN 200 uM) [nM] | apparent KD of MS2 coat protein (input ligand: none) [nM] | apparent KD of MS2 coat protein [1] [nM] | apparent KD of MS2 coat protein [2] [nM] | apparent KD of MS2 coat protein [3] [nM] | apparent KD of MS2 coat protein [4] [nM]
CCCUGCAACUGAGGAUAUCACGGACACCGACGUUGAGAAGGCAGACAUGAGGAUCACCCAUGUGAUUUCUCAAUGCUAAACAUU (Eterna round: R96, puzzle: Exclusion NG 1) | 66.4 | 36.8 | 29.6 | – | – | –
CCGAAAAUGCAGGAUAUCGUAUCGGAAACGAUACGAGAAGGGCAAACAUGAGGAUCACCCAUGUUCCUUAACGG [Mat - Exclusion 6 - Eli Mod - D76] (puzzle: Exclusion 6) | – | – | – | 21.3 | 19.4 | 18.9
CCGAAUAAGCAGGAUAUCGUAUCGGAAACGAUACGAGAAGGGCUAACAUGAGGAUCACCCAUGUUCCUUAACGG [Fiskers Ex 6 - 15] (puzzle: Exclusion 6) | – | – | – | – | 19.2 | –
CCGACCCUAGGAUAUUGUACUGCUGACAUGAGGAUCACCCAUGUAUGUUAACUCGGCCGACGAGAAGGAGGCGAAA [BotMod 5 - Jieux - Exclusion 5] (Eterna round: R97, puzzle: Exclusion 5) | 21.7 | 20.3 | – | – | – | –
CCGACGUGAGGAUAUCCAUCUGGAUCAGACUAGAUCCUGAUGGAGAAGGCACAUGAGGAUCACCCAUGUCACGG [Eli 4x 4.48] (Eterna round: R97, puzzle: Exclusion 4) | 413 | 140 | – | – | – | –
CCGAGCAAGGUGAGGAUAUUAAGAGCUACAGAGCAUGAGAAGGCACAUGAGGAUCACCCAUGUUACUACAGGGA [Eternabot (L1) Solution 66] (Eterna round: R97, puzzle: Brourd's mod of Exclusion 4) | 54.9 | 54 | – | – | – | –
CCGAGCAGACGGAGAUCCAACAUGAGGAUCACCCAUGUCUCAAAAGCUUUUUGCUUGUCUUAUUCUCCUCUGUUCUC [Qureorxe] (Eterna round: R96, puzzle: Sensor v3, turn-off variant 1) | 13 | 15.6 | 29.6 | – | – | –
CCGAGCAGACGGAGAUCCAACAUGAGGAUCACCCAUGUCUCAAAAGCUUUUUGCUUGUCUUAUUCUCCUCUGUUCUC [Qureorxe] (puzzle: Sensor v3, turn-off variant 1) | – | – | – | 12.5 | 29.2 | 11.3
CCGAGGUGGCGGUCCUAUGACAUGAGGAUCACCCAUGUACCUCGCCACGAGCUUUUUGCUCAUCUUAUAAUUCUCGG [Edbibice] (puzzle: Sensor v3, turn-off variant 1) | – | – | – | 17.2 | 18.9 | 16.6
CCGAGUCGAGUGAGGAUAUAGCUAAGACCGCUUAGCUAGAAGGCACAUGAGGAUCACCCAUGUCUUAGGAGAAG [Eternabot (L1) Solution 80] (Eterna round: R97, puzzle: Brourd's mod of Exclusion 4) | 22.4 | 22.2 | – | – | – | –
CCGCAAAAGCAGGAUAUCGUAUCGGAUACGAUACGAGAAGGGCUAACAUGAGGAUCACCCAUGUGUCCUAGCGG [Fiskers Ex 6 - 38] (puzzle: Exclusion 6) | – | – | – | – | 15.4 | –
CCGCAAAAGGAGGAUAUCGUAUCGGAUACGAUACGAGAAGGCUUUACAUGAGGAUCACCCAUGUGUCCUAGCGG [Fiskers Ex 6 - 47] (puzzle: Exclusion 6) | – | – | – | – | 13.4 | –
CCGCAAAUGCAGGAUAUCGUAUCGGAUACGAUACGAGAAGGGCAUACAUGAGGAUCACCCAUGUGUCCUAGCGG [Fiskers Ex 6 - 43] (puzzle: Exclusion 6) | – | – | – | – | 16 | –
CCGCAUAUGGAGGAUAUCGUAUCGGAAACGAUACGAGAAGGCUAAACAUGAGGAUCACCCAUGUUCCUUAACGG [Fiskers Ex 6 - 29] (puzzle: Exclusion 6) | – | – | – | – | 15.2 | –
CCGCCGCAAGGAUAUACUUGCGGUGGUGUUCGAGUUCUUUUACUUGAGGAUCACCCAAGUAGAAGGUGCAAAAC [jl-ex2.4.55 ViennaUCT mod] (Eterna round: R97, puzzle: Exclusion 2) | 11.9 | 11.5 | – | – | – | –
